pKd: −log10 of the molar value.
Target: CD40 (as in Table 2, species and form not stated)
Test: binding kinetics, method not stated

## 5D12 (anti-CD40 antibody)
  pKd: 7.99
  koff: 1.54e-05 s⁻¹
  kon: 1510 M⁻¹ s⁻¹
